Source: patent US20250059285A1

Target: human Gal10-His (human) (UniProt Q05315)
Experiment: competition ELISA on coated Gal10-His; negative control, competitor g7B07-hFab-Biot; set as 0%

Chain of human Gal10-His (human) (Q05315 2-142 limits assumed): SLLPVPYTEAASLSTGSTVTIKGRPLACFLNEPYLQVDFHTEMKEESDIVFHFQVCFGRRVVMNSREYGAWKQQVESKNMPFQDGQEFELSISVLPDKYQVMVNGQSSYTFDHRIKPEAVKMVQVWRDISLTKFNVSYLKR

Motavizumab in a human Fab backbone
% Competition against g7B07-Biot: 0% | Mean OD value: 2.51 OD
